Laboratory results taken from article PMC9887757 (2023).

Biological target: 41F17
Assay: SPR; avidity

B1: BKPyV VLP genotype Ia (VP1 virus-like particles) (complex)
chain: MAPTKRKGECPGAAPKKPKEPVQVPKLLIKGGVEVLEVKTGVDAITEVECFLNPEMGDPDENLRGFSLKLSAENDFSSDSPERKMLPCYSTARIPLPNLNEDLTCGNLLMWEAVTVQTEVIGITSMLNLHAGSQKVHEHGGGKPIQGSNFHFFAVGGEPLEMQGVLMNYRSKYPDGTITPKNPTAQSQVMNTDHKAYLDKNNAYPVECWVPDPSRNENARYFGTFTGGENVPPVLHVTNTATTVLLDEQGVGPLCKADSLYVSAADICGLFTNSSGTQQWRGLARYFKIRLRKRSVKNPYPISFLLSDLINRRTQRVDGQPMYGMESQVEEVRVFDGTERLPGDPDMIRYIDKQGQLQTKML
With B1 the Kd was 340 pM.
